Results: the supplement of paper PMC9112550, “Optimization of the antimicrobial peptide Bac7 by deep mutational scanning” (BMC Biology, 2022)

System: Escherichia coli TOP10
Assay: shrunken log2 fold change of peptide-encoding DNA abundance (4.5 h post-induction vs induction); higher = less antimicrobial activity (less host growth inhibition)
Details: time post-induction: 4.5 h; library: site-saturation at positions 5, 18, 19, 20
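Further: peptides expressed intracellularly from a pBAD plasmid library in pooled LB shake-flask culture, induced with 0.3% L-arabinose, DNA abundance read by NGS, three biological replicates, DESeq2 with apeglm shrinkage.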

Row | Sequence | shrunken log2 fold change
1 | RRIRDRPPRLPRPRPRPCGSPRP | 0.0136
2 | RRIRFRPPRLPRPRPRPCCYPRP | -0.251
3 | RRIRTRPPRLPRPRPRPVIHPRP | 0.0146
4 | RRIRIRPPRLPRPRPRPLDPPRP | -0.0309
5 | RRIRYRPPRLPRPRPRPGFRPRP | -0.322
6 | RRIRFRPPRLPRPRPRPPQYPRP | 0.0298
7 | RRIRPRPPRLPRPRPRPHGVPRP | -0.104
8 | RRIRDRPPRLPRPRPRPKMVPRP | 0.223
9 | RRIRWRPPRLPRPRPRPHVLPRP | -0.096
10 | RRIRLRPPRLPRPRPRPAIRPRP | -0.111
11 | RRIRWRPPRLPRPRPRPKCDPRP | 0.033
12 | RRIRTRPPRLPRPRPRPEQIPRP | 0.126
13 | RRIRQRPPRLPRPRPRPQICPRP | -0.229
14 | RRIRIRPPRLPRPRPRPRIRPRP | -0.204
15 | RRIRERPPRLPRPRPRPSQRPRP | -0.0321
16 | RRIRERPPRLPRPRPRPPIHPRP | -0.502
17 | RRIRHRPPRLPRPRPRPPLMPRP | -0.187
18 | RRIRDRPPRLPRPRPRPCHLPRP | -0.00196
19 | RRIRERPPRLPRPRPRPKDTPRP | -0.115
20 | RRIRFRPPRLPRPRPRPPDEPRP | 0.684
21 | RRIRFRPPRLPRPRPRPIAGPRP | 0.0541
22 | RRIRTRPPRLPRPRPRPYNGPRP | -0.203
23 | RRIRPRPPRLPRPRPRPPKFPRP | 0.0927
24 | RRIRARPPRLPRPRPRPIDGPRP | 0.00408
25 | RRIRSRPPRLPRPRPRPKKCPRP | -0.0782

Row | Sequence | shrunken log2 fold change
26 | RRIRHRPPRLPRPRPRPGLPPRP | 0.118
27 | RRIRLRPPRLPRPRPRPEFEPRP | 0.0191
28 | RRIRERPPRLPRPRPRPNHQPRP | -0.259
29 | RRIRYRPPRLPRPRPRPARMPRP | -0.0508
30 | RRIRYRPPRLPRPRPRPPSGPRP | 0.0974
31 | RRIRTRPPRLPRPRPRPDKEPRP | -0.0196
32 | RRIRLRPPRLPRPRPRPSMDPRP | -0.327
33 | RRIRWRPPRLPRPRPRPNLLPRP | 0.0966
34 | RRIRFRPPRLPRPRPRPQTSPRP | -0.449
35 | RRIRWRPPRLPRPRPRPAWRPRP | 0.642
36 | RRIRLRPPRLPRPRPRPLEYPRP | -0.116
37 | RRIRDRPPRLPRPRPRPDFMPRP | 0.161
38 | RRIRQRPPRLPRPRPRPSYGPRP | -0.188
39 | RRIRTRPPRLPRPRPRPYNSPRP | -0.00162
40 | RRIRMRPPRLPRPRPRPQQFPRP | 0.359
41 | RRIRLRPPRLPRPRPRPVMMPRP | -0.288
42 | RRIRHRPPRLPRPRPRPRDCPRP | -0.0851
43 | RRIRIRPPRLPRPRPRPCIDPRP | -0.0398
44 | RRIRGRPPRLPRPRPRPTINPRP | 0.477
45 | RRIRFRPPRLPRPRPRPRMPPRP | 0.145
46 | RRIRWRPPRLPRPRPRPAQGPRP | 0.27
47 | RRIRVRPPRLPRPRPRPCCPPRP | -0.25
48 | RRIRLRPPRLPRPRPRPPRKPRP | 0.659
49 | RRIRHRPPRLPRPRPRPEHLPRP | 0.0981
50 | RRIRCRPPRLPRPRPRPSSGPRP | -0.011

Row | Sequence | shrunken log2 fold change
51 | RRIRERPPRLPRPRPRPIGYPRP | -0.00962
52 | RRIRMRPPRLPRPRPRPMWNPRP | 0.0246
53 | RRIRNRPPRLPRPRPRPVRGPRP | 0.649
54 | RRIRHRPPRLPRPRPRPDYVPRP | -0.165
55 | RRIRTRPPRLPRPRPRPWMDPRP | -0.13
56 | RRIRHRPPRLPRPRPRPDQYPRP | 0.0188
57 | RRIRDRPPRLPRPRPRPPKWPRP | 0.27
58 | RRIRLRPPRLPRPRPRPFLCPRP | -0.353
59 | RRIRGRPPRLPRPRPRPKWTPRP | 0.392
60 | RRIRFRPPRLPRPRPRPSDYPRP | -0.219
61 | RRIRQRPPRLPRPRPRPSFKPRP | -0.525
62 | RRIRHRPPRLPRPRPRPAKHPRP | -0.0767
63 | RRIRCRPPRLPRPRPRPANEPRP | 0.0681
64 | RRIRQRPPRLPRPRPRPSFSPRP | -0.443
65 | RRIRRRPPRLPRPRPRPVLWPRP | 0.886
66 | RRIRQRPPRLPRPRPRPWKPPRP | -0.00884
67 | RRIRARPPRLPRPRPRPPHGPRP | 0.788
68 | RRIRNRPPRLPRPRPRPQKHPRP | -0.227
69 | RRIRRRPPRLPRPRPRPKYCPRP | 0.0144
70 | RRIRPRPPRLPRPRPRPTLVPRP | 0.114
71 | RRIRCRPPRLPRPRPRPPHCPRP | 0.971
72 | RRIRDRPPRLPRPRPRPIMPPRP | -0.0491
73 | RRIRNRPPRLPRPRPRPNAPPRP | -0.194
74 | RRIRKRPPRLPRPRPRPEPQPRP | 0.637
75 | RRIRDRPPRLPRPRPRPATLPRP | -0.146

Row | Sequence | shrunken log2 fold change
76 | RRIRRRPPRLPRPRPRPHVKPRP | -0.32
77 | RRIRKRPPRLPRPRPRPKVFPRP | -0.0531
78 | RRIRVRPPRLPRPRPRPIGMPRP | 0.211
79 | RRIRNRPPRLPRPRPRPKHTPRP | -0.0718
80 | RRIRPRPPRLPRPRPRPYNFPRP | -0.289
81 | RRIRWRPPRLPRPRPRPGIFPRP | 0.0995
82 | RRIRKRPPRLPRPRPRPMTEPRP | 0.0103
83 | RRIRKRPPRLPRPRPRPSFFPRP | -0.0585
84 | RRIRMRPPRLPRPRPRPCTAPRP | 0.191
85 | RRIRGRPPRLPRPRPRPIIPPRP | -0.212
86 | RRIRWRPPRLPRPRPRPHWAPRP | -0.102
87 | RRIRKRPPRLPRPRPRPWDPPRP | -0.235
88 | RRIRPRPPRLPRPRPRPDNQPRP | -0.357
89 | RRIRCRPPRLPRPRPRPKVMPRP | -0.184
90 | RRIRMRPPRLPRPRPRPALYPRP | 0.765
91 | RRIRQRPPRLPRPRPRPVFGPRP | 0.13
92 | RRIRGRPPRLPRPRPRPMLWPRP | 0.737
93 | RRIRLRPPRLPRPRPRPFMGPRP | -0.141
94 | RRIRYRPPRLPRPRPRPHNTPRP | -1.28
95 | RRIRTRPPRLPRPRPRPPRKPRP | 0.25
96 | RRIRLRPPRLPRPRPRPWSQPRP | -0.145
97 | RRIRNRPPRLPRPRPRPSIPPRP | -0.134
98 | RRIRMRPPRLPRPRPRPQMWPRP | 0.635
99 | RRIRSRPPRLPRPRPRPYTKPRP | -0.202
100 | RRIRARPPRLPRPRPRPQFHPRP | -0.116

Row | Sequence | shrunken log2 fold change
101 | RRIRSRPPRLPRPRPRPSNVPRP | -0.47
102 | RRIRSRPPRLPRPRPRPLMSPRP | -0.0126
103 | RRIRFRPPRLPRPRPRPWSQPRP | -0.0158
104 | RRIRQRPPRLPRPRPRPVDNPRP | 0.0335
105 | RRIRVRPPRLPRPRPRPTAFPRP | 0.0786
106 | RRIRGRPPRLPRPRPRPALPPRP | 0.696
107 | RRIRCRPPRLPRPRPRPIGEPRP | -0.0453
108 | RRIRFRPPRLPRPRPRPMENPRP | -0.0803
109 | RRIRIRPPRLPRPRPRPFMLPRP | -0.407
110 | RRIRSRPPRLPRPRPRPVNEPRP | -0.0746
111 | RRIRPRPPRLPRPRPRPCQGPRP | 0.056
112 | RRIRQRPPRLPRPRPRPWTYPRP | 0.0804
113 | RRIRNRPPRLPRPRPRPISAPRP | -0.0545
114 | RRIRCRPPRLPRPRPRPVFWPRP | 0.138
115 | RRIRMRPPRLPRPRPRPVRWPRP | 1.38
116 | RRIRERPPRLPRPRPRPVNQPRP | -0.123
117 | RRIRRRPPRLPRPRPRPDRVPRP | -0.203
118 | RRIRHRPPRLPRPRPRPPFLPRP | -0.251
119 | RRIRFRPPRLPRPRPRPFQHPRP | -0.209
120 | RRIRIRPPRLPRPRPRPEGDPRP | 0.574
121 | RRIRCRPPRLPRPRPRPVRDPRP | 0.238
122 | RRIRFRPPRLPRPRPRPGIFPRP | -0.218
123 | RRIRVRPPRLPRPRPRPIWPPRP | -0.0228
124 | RRIRMRPPRLPRPRPRPAGIPRP | -0.000742
125 | RRIRCRPPRLPRPRPRPEKHPRP | 0.00607
